In patent publication US20150147336A1:
Values belong to the substance of their own block, whether it stands above or below them.

How the values were obtained:
IFNα2a (human) = IFNα2a (human) (UniProt P01563); assay: cell-based or functional assay
human leukocyte IFN = assay: cell-based or functional assay

HERC5 gene expression (TAQMAN, Average) in whole blood of donor 107 with 100 IU IFNα2a + R347 control Ab; same donor VEH 1.00, IFN alone 41.12 (relative expression (Average)) (IFNα2a (human)): 55
HERC5 gene expression (TAQMAN, Average) in whole blood of donor 163 with 100 IU IFNα2a + R347 control Ab; same donor VEH 1.05, IFN alone 75.81 (relative expression (Average)) (IFNα2a (human)): 95.4
HERC5 gene expression (TAQMAN, Average) in whole blood of donor 175 with 100 IU IFNα2a + R347 control Ab; same donor VEH 1.19, IFN alone 74.58 (relative expression (Average)) (IFNα2a (human)): 98.2
IFN α2a-induced IFIT1 gene expression in whole blood (TAQMAN), sample 107 IFN + R347 (107 IFN 80.21; 107 VEH 1.00) (relative expression (Average)) (IFNα2a (human)): 86.4
IFN α2a-induced IFIT1 gene expression in whole blood (TAQMAN), sample 163 IFN + R3437 (163 IFN 51.65; 163 VEH 0.92) (relative expression (Average)) (IFNα2a (human)): 86.6
IFN α2a-induced IFIT3 gene expression in whole blood (TAQMAN), sample 107 IFN + R347 (107 IFN 38.43; 107 VEH 1.00) (relative expression (Average)) (IFNα2a (human)): 42.6
IFN α2a-induced IFIT3 gene expression in whole blood (TAQMAN), sample 163 IFN + R3437 (163 IFN 25.94; 163 VEH 0.62) (relative expression (Average)) (IFNα2a (human)): 44.8
IFN α2a-induced IFIT3 gene expression in whole blood (TAQMAN), sample 175 IFN + R347 (175 IFN 35.02; 175 VEH 1.32) (relative expression (Average)) (IFNα2a (human)): 29.7
IFN α2a-induced IL6ST gene expression in whole blood (TAQMAN), sample 107 IFN + R347 (107 IFN 3.54; 107 VEH 1.00) (relative expression (Average)) (IFNα2a (human)): 8.19
IFN α2a-induced IL6ST gene expression in whole blood (TAQMAN), sample 163 IFN + R3437 (163 IFN 7.69; 163 VEH 2.50) (relative expression (Average)) (IFNα2a (human)): 13.2
IFN α2a-induced IL6ST gene expression in whole blood (TAQMAN), sample 175 IFN + R347 (175 IFN 7.62; 175 VEH 1.37) (relative expression (Average)) (IFNα2a (human)): 23.9
IFN α2a-induced IRF7 gene expression in whole blood (TAQMAN), sample 107 IFN + R347 (107 IFN 18.53; 107 VEH 1.00) (relative expression (Average)) (IFNα2a (human)): 19.5
IFN α2a-induced IRF7 gene expression in whole blood (TAQMAN), sample 163 IFN + R3437 (163 IFN 17.16; 163 VEH 0.91) (relative expression (Average)) (IFNα2a (human)): 23.3
IFN α2a-induced IRF7 gene expression in whole blood (TAQMAN), sample 175 IFN + R347 (175 IFN 24.65; 175 VEH 1.25) (relative expression (Average)) (IFNα2a (human)): 26.3
IFN α2a-induced LY6E gene expression in whole blood (TAQMAN), sample 107 IFN + R347 (107 IFN 19.09; 107 VEH 1.00) (relative expression (Average)) (IFNα2a (human)): 12.5
IFN α2a-induced LY6E gene expression in whole blood (TAQMAN), sample 163 IFN + R3437 (163 IFN 13.52; 163 VEH 1.02) (relative expression (Average)) (IFNα2a (human)): 22.6
IFN α2a-induced LY6E gene expression in whole blood (TAQMAN), sample 175 IFN + R347 (175 IFN 19.32; 175 VEH 1.61) (relative expression (Average)) (IFNα2a (human)): 15.6
IFN α2a-induced MARCKS gene expression in whole blood (TAQMAN), sample 107 IFN + R347 (107 FN 3.97; 107 VEH 1.00) (relative expression (Average)) (IFNα2a (human)): 2.99
IFN α2a-induced MARCKS gene expression in whole blood (TAQMAN), sample 163 IFN + R3437 (163 IFN 2.59; 163 VEH 0.56) (relative expression (Average)) (IFNα2a (human)): 4.42
IFN α2a-induced MARCKS gene expression in whole blood (TAQMAN), sample 175 IFN + R347 (175 IFN 2.59; 175 VEH 0.41) (relative expression (Average)) (IFNα2a (human)): 3.38
IFN α2a-induced RAB8B gene expression in whole blood (TAQMAN), sample 107 IFN + R347 (107 IFN 3.45; 107 VEH 1.0) (relative expression (Average)) (IFNα2a (human)): 3.15
IFN α2a-induced RAB8B gene expression in whole blood (TAQMAN), sample 163 IFN + R3437 (163 IFN 2.20; 163 VEH 0.70) (relative expression (Average)) (IFNα2a (human)): 3.71
IFN α2a-induced RAB8B gene expression in whole blood (TAQMAN), sample 175 IFN + R347 (175 IFN 2.63; 175 VEH 0.64) (relative expression (Average)) (IFNα2a (human)): 2.51
OAS1 gene expression (TAQMAN, Average) in whole blood of donor 107 with 100 IU IFNα2a + R347 control Ab; same donor VEH 1.00, IFN alone 15.11 (relative expression (Average)) (IFNα2a (human)): 17.8
OAS1 gene expression (TAQMAN, Average) in whole blood of donor 163 with 100 IU IFNα2a + R347 control Ab; same donor VEH 0.77, IFN alone 14.19 (relative expression (Average)) (IFNα2a (human)): 22.4
OAS1 gene expression (TAQMAN, Average) in whole blood of donor 175 with 100 IU IFNα2a + R347 control Ab; same donor VEH 1.62, IFN alone 22.09 (relative expression (Average)) (IFNα2a (human)): 15.2
OAS3 gene expression (TAQMAN, Average) in whole blood of donor 107 with 100 IU IFNα2a + R347 control Ab; same donor VEH 1.00, IFN alone 49.04 (relative expression (Average)) (IFNα2a (human)): 76.9
OAS3 gene expression (TAQMAN, Average) in whole blood of donor 163 with 100 IU IFNα2a + R347 control Ab; same donor VEH 0.49, IFN alone 42.01 (relative expression (Average)) (IFNα2a (human)): 52.6
OAS3 gene expression (TAQMAN, Average) in whole blood of donor 175 with 100 IU IFNα2a + R347 control Ab; same donor VEH 1.27, IFN alone 37.87 (relative expression (Average)) (IFNα2a (human)): 34.9
RSAD2 gene expression (TAQMAN, Average) in whole blood of donor 107 with 100 IU IFNα2a + R347 control Ab; same donor VEH 1.00, IFN alone 109.64 (relative expression (Average)) (IFNα2a (human)): 107
RSAD2 gene expression (TAQMAN, Average) in whole blood of donor 163 with 100 IU IFNα2a + R347 control Ab; same donor VEH 0.56, IFN alone 71.47 (relative expression (Average)) (IFNα2a (human)): 115
RSAD2 gene expression (TAQMAN, Average) in whole blood of donor 175 with 100 IU IFNα2a + R347 control Ab; same donor VEH 1.88, IFN alone 126.27 (relative expression (Average)) (IFNα2a (human)): 91
Substance: R347 (antibody)

HERC5 gene expression (TAQMAN, Average) in whole blood of donor 107 with 100 IU IFNα2a + MEDI-545; same donor VEH 1.00, IFN alone 41.12 (relative expression (Average)) (IFNα2a (human)): 6.29
HERC5 gene expression (TAQMAN, Average) in whole blood of donor 163 with 100 IU IFNα2a + MEDI-545; same donor VEH 1.05, IFN alone 75.81 (relative expression (Average)) (IFNα2a (human)): 7.83
HERC5 gene expression (TAQMAN, Average) in whole blood of donor 175 with 100 IU IFNα2a + MEDI-545; same donor VEH 1.19, IFN alone 74.58 (relative expression (Average)) (IFNα2a (human)): 6.89
IFN α2a-induced IFIT1 gene expression in whole blood (TAQMAN), sample 107 IFN + 545 (107 IFN 80.21; 107 VEH 1.00) (relative expression (Average)) (IFNα2a (human)): 13.1
IFN α2a-induced IFIT1 gene expression in whole blood (TAQMAN), sample 163 IFN + 545 (163 IFN 51.65; 163 VEH 0.92) (relative expression (Average)) (IFNα2a (human)): 7.6
IFN α2a-induced IFIT1 gene expression in whole blood (TAQMAN), sample 175 IFN + 545 (175 IFN 82.98; 175 VEH 1.47) (relative expression (Average)) (IFNα2a (human)): 8.4
IFN α2a-induced IFIT3 gene expression in whole blood (TAQMAN), sample 107 IFN + 545 (107 IFN 38.43; 107 VEH 1.00) (relative expression (Average)) (IFNα2a (human)): 6.78
IFN α2a-induced IFIT3 gene expression in whole blood (TAQMAN), sample 163 IFN + 545 (163 IFN 25.94; 163 VEH 0.62) (relative expression (Average)) (IFNα2a (human)): 4.58
IFN α2a-induced IFIT3 gene expression in whole blood (TAQMAN), sample 175 IFN + 545 (175 IFN 35.02; 175 VEH 1.32) (relative expression (Average)) (IFNα2a (human)): 5.28
IFN α2a-induced IL6ST gene expression in whole blood (TAQMAN), sample 107 IFN + 545 (107 IFN 3.54; 107 VEH 1.00) (relative expression (Average)) (IFNα2a (human)): 2.62
IFN α2a-induced IL6ST gene expression in whole blood (TAQMAN), sample 163 IFN + 545 (163 IFN 7.69; 163 VEH 2.50) (relative expression (Average)) (IFNα2a (human)): 4.18
IFN α2a-induced IL6ST gene expression in whole blood (TAQMAN), sample 175 IFN + 545 (175 IFN 7.62; 175 VEH 1.37) (relative expression (Average)) (IFNα2a (human)): 2.95
IFN α2a-induced IRF7 gene expression in whole blood (TAQMAN), sample 107 IFN + 545 (107 IFN 18.53; 107 VEH 1.00) (relative expression (Average)) (IFNα2a (human)): 3.42
IFN α2a-induced IRF7 gene expression in whole blood (TAQMAN), sample 163 IFN + 545 (163 IFN 17.16; 163 VEH 0.91) (relative expression (Average)) (IFNα2a (human)): 2.92
IFN α2a-induced IRF7 gene expression in whole blood (TAQMAN), sample 175 IFN + 545 (175 IFN 24.65; 175 VEH 1.25) (relative expression (Average)) (IFNα2a (human)): 2.43
IFN α2a-induced LY6E gene expression in whole blood (TAQMAN), sample 107 IFN + 545 (107 IFN 19.09; 107 VEH 1.00) (relative expression (Average)) (IFNα2a (human)): 3.5
IFN α2a-induced LY6E gene expression in whole blood (TAQMAN), sample 163 IFN + 545 (163 IFN 13.52; 163 VEH 1.02) (relative expression (Average)) (IFNα2a (human)): 4.8
IFN α2a-induced LY6E gene expression in whole blood (TAQMAN), sample 175 IFN + 545 (175 IFN 19.32; 175 VEH 1.61) (relative expression (Average)) (IFNα2a (human)): 3.74
IFN α2a-induced MARCKS gene expression in whole blood (TAQMAN), sample 163 IFN + 545 (163 IFN 2.59; 163 VEH 0.56) (relative expression (Average)) (IFNα2a (human)): 1.55
IFN α2a-induced MARCKS gene expression in whole blood (TAQMAN), sample 175 IFN + 545 (175 IFN 2.59; 175 VEH 0.41) (relative expression (Average)) (IFNα2a (human)): 0.55
IFN α2a-induced RAB8B gene expression in whole blood (TAQMAN), sample 163 IFN + 545 (163 IFN 2.20; 163 VEH 0.70) (relative expression (Average)) (IFNα2a (human)): 1.18
IFN α2a-induced RAB8B gene expression in whole blood (TAQMAN), sample 175 IFN + 545 (175 IFN 2.63; 175 VEH 0.64) (relative expression (Average)) (IFNα2a (human)): 1.15
OAS1 gene expression (TAQMAN, Average) in whole blood of donor 107 with 100 IU IFNα2a + MEDI-545; same donor VEH 1.00, IFN alone 15.11 (relative expression (Average)) (IFNα2a (human)): 3.45
OAS1 gene expression (TAQMAN, Average) in whole blood of donor 163 with 100 IU IFNα2a + MEDI-545; same donor VEH 0.77, IFN alone 14.19 (relative expression (Average)) (IFNα2a (human)): 3.05
OAS1 gene expression (TAQMAN, Average) in whole blood of donor 175 with 100 IU IFNα2a + MEDI-545; same donor VEH 1.62, IFN alone 22.09 (relative expression (Average)) (IFNα2a (human)): 4.04
OAS3 gene expression (TAQMAN, Average) in whole blood of donor 107 with 100 IU IFNα2a + MEDI-545; same donor VEH 1.00, IFN alone 49.04 (relative expression (Average)) (IFNα2a (human)): 7.03
OAS3 gene expression (TAQMAN, Average) in whole blood of donor 163 with 100 IU IFNα2a + MEDI-545; same donor VEH 0.49, IFN alone 42.01 (relative expression (Average)) (IFNα2a (human)): 14.6
OAS3 gene expression (TAQMAN, Average) in whole blood of donor 175 with 100 IU IFNα2a + MEDI-545; same donor VEH 1.27, IFN alone 37.87 (relative expression (Average)) (IFNα2a (human)): 3.92
RSAD2 gene expression (TAQMAN, Average) in whole blood of donor 107 with 100 IU IFNα2a + MEDI-545; same donor VEH 1.00, IFN alone 109.64 (relative expression (Average)) (IFNα2a (human)): 9.88
RSAD2 gene expression (TAQMAN, Average) in whole blood of donor 163 with 100 IU IFNα2a + MEDI-545; same donor VEH 0.56, IFN alone 71.47 (relative expression (Average)) (IFNα2a (human)): 4.39
RSAD2 gene expression (TAQMAN, Average) in whole blood of donor 175 with 100 IU IFNα2a + MEDI-545; same donor VEH 1.88, IFN alone 126.27 (relative expression (Average)) (IFNα2a (human)): 8.43
neutralization of overexpression of ISG15, USP18 and IFIT2 in keratinocytes stimulated with 150 I.U./mL leukocyte IFN (human leukocyte IFN): 70 to 100%
Substance: MEDI-545 (antibody)
